The results in this text go back to article PMC6754406 (2019).

Broadly, the Kd is the free concentration of one partner at which half of the binding sites on the other are occupied at equilibrium, for simple one-to-one binding.

Numbering of substitutions follows the chain as printed. In names and notes the source's numbering stands. Where no end group is shown, it is not given here. [ ]: non-standard residue; d: D form. pS = N[C@@H](COP(=O)(O)O)C(=O)O

The labels stand for the following.
B1: GM130-NLS phospho-S25 (synthetic peptide with a phosphate moiety on Ser-25 of GM130, a.a. 13-40) (peptide)
chain: AKKKLREYQQRN[pS]PGVPTGAKKKKKIKN
B2: p115-CTD (p115, a.a. 780-930) (domain or fragment)
chain: SARDSEQVAELKQELATLKSQLNSQSVEITKLQTEKQELLQKTEAFAKSVEVQGETETIIATKTTDVEGRLSALLQETKELKNEIKALSEERTAIKEQLDSSNSTIAILQTEKDKLELEITDSKKEQDDLLVLLADQDQKILSLKNKLKDL
B3: GM130-S25D (phosphomimetic GM130 (1-85) mutant), non-tagged (domain or fragment)
chain: MSEETRQSKLAAAKKKLREYQQRNDPGVPTGAKKKKKIKNGSNPETTTSGGCHSPEDTPKDNAATLQPSDDTVLPGGVPSPGASL
B4: GM130-WT (wild type GM130 N-terminal region, a.a. 1-85), non-tagged (domain or fragment)
chain: B3 chain with D25S
B5: GM130-NLS WT peptide (peptide)
chain: AKKKLREYQQRNSPGVPTGAKKKKKIK

The target of assay [1] is Importin-β, recombinant, non-tagged (human, UniProt Q14974 1-876). As to the kind of experiment: ITC; phospho-S25. (In general: In ITC the heat of successive injections is recorded.)
Importin-β, recombinant, non-tagged, sequence (Q14974 whole entry): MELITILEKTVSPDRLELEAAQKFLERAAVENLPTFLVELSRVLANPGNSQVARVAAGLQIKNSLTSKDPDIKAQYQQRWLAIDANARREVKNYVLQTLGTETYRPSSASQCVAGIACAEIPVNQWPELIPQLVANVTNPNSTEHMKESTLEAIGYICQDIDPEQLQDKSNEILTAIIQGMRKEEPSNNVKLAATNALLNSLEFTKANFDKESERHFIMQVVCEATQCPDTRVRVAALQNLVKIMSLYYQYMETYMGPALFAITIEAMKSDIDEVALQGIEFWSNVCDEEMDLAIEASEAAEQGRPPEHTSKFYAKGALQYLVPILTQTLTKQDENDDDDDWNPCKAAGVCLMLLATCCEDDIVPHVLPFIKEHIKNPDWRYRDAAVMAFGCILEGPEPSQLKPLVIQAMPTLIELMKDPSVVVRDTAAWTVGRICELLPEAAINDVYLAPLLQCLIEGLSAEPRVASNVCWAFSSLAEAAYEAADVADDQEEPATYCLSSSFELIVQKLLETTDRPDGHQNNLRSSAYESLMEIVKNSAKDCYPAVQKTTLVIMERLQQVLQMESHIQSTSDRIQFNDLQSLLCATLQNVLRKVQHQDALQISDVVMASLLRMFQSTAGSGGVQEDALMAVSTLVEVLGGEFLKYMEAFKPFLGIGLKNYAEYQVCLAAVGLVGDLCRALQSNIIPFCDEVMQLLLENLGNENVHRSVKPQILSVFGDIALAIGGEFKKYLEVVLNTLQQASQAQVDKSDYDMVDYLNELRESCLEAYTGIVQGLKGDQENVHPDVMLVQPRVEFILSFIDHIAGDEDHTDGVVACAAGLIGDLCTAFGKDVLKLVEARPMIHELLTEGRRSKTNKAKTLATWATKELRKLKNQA
Assay [2] has as its target T1, Importin-α FL (full-length Importin-α), recombinant (human, UniProt P52292 1-529). As to the kind of experiment: ITC; phospho-S25.
In assay [3] the target is B4. As to the kind of experiment: ITC.
The target of assay [4] is B3. Kind of assay: ITC.
For assay [5], the target named is Importin-α(ΔIBB) (Importin-α lacking the IBB domain, a.a. 70-524) (mouse, UniProt P52293 70-524). Kind of assay: ITC; 200 mM NaCl.
Assay [6] has as its target T1, Importin-α FL (full-length Importin-α), …. As to the kind of experiment: ITC.

On to B1, for which the Kd worked out at 270 nM in assay [1] and 2100 nM in assay [2].

On to B2, for which the Kd is 823 nM in assay [3] and 985 nM in assay [4].

Turning to B3, the Kd in assay [5] came out at 227 nM.

As for B4, binding in assay [5] was put at a Kd of 322 nM.

Turning to B5, the Kd in assay [6] stood at 6900 nM.
